First the molecules themselves.
B1: CPEB3 Ribozyme (parent)
chain: GGGGGCCACAGCAGAAGCGUUCACGUCGCGGCCCCUGUCAGAUUCUGGUGAAUCUGCGAAUUCUGCUGU

Variants of B1 are the subject of this data set. The data set can be described thus: self-cleavage, relative activity (ratio to wild type); higher = more cleavage; co-transcriptional.
For the variant GGGGGCCACAGCAGAAGUGUUCACGUCGCGGCUCCUGUCAGAUUCUGGUGAAUCUGCGAAUUCUGCUGU, the self-cleavage was 0.821.

Turning to GGGGGCCACAGCAGAAGUGUUCACGUCGCGGCCCCUGUCAGAUUCCGGUGAAUCUGCGAAUUCUGCUGU, the self-cleavage came out at 0.808.

Regarding GGGGGCCACAGCAGAAGUGUUCACGUCGCGGCCCCUGUCAGAUUCAGGUGAAUCUGCGAAUUCUGCUGU, the self-cleavage was determined as 0.964.

Regarding GGGGGCCACAGCAGAAGUGUUCACGUCGCGGCCCCUGUCAGAUUCGGGUGAAUCUGCGAAUUCUGCUGU, the self-cleavage was determined as 0.854.

Take GGGGGCCACAGCAGAAGUGUUCACGUCGCGUCCCCUGUCAGAUUCUGGUGAAUCUGCGAAUUCUGCUGU: the self-cleavage worked out at 0.295.

As for GGGGGCCACAGCAGAAGUGUUCACGUCGCGCCCCCUGUCAGAUUCUGGUGAAUCUGCGAAUUCUGCUGU, the self-cleavage stood at 0.178.

Take GGGGGCCACAGCAGAAGUGUUCACGUCGCGACCCCUGUCAGAUUCUGGUGAAUCUGCGAAUUCUGCUGU: the self-cleavage stood at 0.313.

GGGGGCCACAGCAGAAGUGUUCACGUCGCGGCCCCUGUCAGAUUCUGGUGAAUCUGCGAAUUCUGCUCU: the self-cleavage was found to be 0.924.

With GGGGGCCACAGCAGAAGUGUUCACGUCGCGGCCCCUGUCAGAUUCUGGUGAAUCUGCGAAUUCUGCUAU, the self-cleavage was 0.948.

For GGGGGCCACAGCAGAAGUGUUCACGUCGCGGCCCCUGUCAGAUUCUGGUGAAUCUGCGAAUUCUGCUUU, the self-cleavage worked out at 0.943.

As for GGGGGCCACAGCAGAAGUGUCCACGUCGCGGCCCCUGUCAGAUUCUGGUGAAUCUGCGAAUUCUGCUGU, the self-cleavage was found to be 0.389.

Take GGGGGCCACAGCAGAAGUGUGCACGUCGCGGCCCCUGUCAGAUUCUGGUGAAUCUGCGAAUUCUGCUGU: the self-cleavage worked out at 0.276.

Turning to GGGGGCCACAGCAGAAGUGUACACGUCGCGGCCCCUGUCAGAUUCUGGUGAAUCUGCGAAUUCUGCUGU, the self-cleavage came to 0.807.

As for GGGGGCCACAGCAGAAGUGUUCACGUCGCGGCCCCUGUCAGAUACUGGUGAAUCUGCGAAUUCUGCUGU, the self-cleavage was determined as 0.727.

As for GGGGGCCACAGCAGAAGUGUUCACGUCGCGGCCCCUGUCAGAUGCUGGUGAAUCUGCGAAUUCUGCUGU, the self-cleavage turned out to be 0.726.

In the case of GGGGGCCACAGCAGAAGUGUUCACGUCGCGGCCCCUGUCAGAUCCUGGUGAAUCUGCGAAUUCUGCUGU, the self-cleavage is 0.617.

For the variant GGGGGCCACAGCAGAAGUGUUCACGUCGCGGCCACUGUCAGAUUCUGGUGAAUCUGCGAAUUCUGCUGU, the self-cleavage was found to be 0.352.

For GGGGGCCACAGCAGAAGUGUUCACGUCGCGGCCCCUGUCAGAUUCUGGUGAAUCUGCGAGUUCUGCUGU, the self-cleavage came out at 0.809.

As to GGGGGCCACAGCAGAAGUGUUCACGUCGCGGCCCCUGUCAGAUUCUGGUGAAUAUGCGAAUUCUGCUGU, the self-cleavage came to 0.305.

Take GGGGGCCACAGCAGAAGUGUUCACGUCGCGGCCCCUGUCAGAUUCUGGUGAAUGUGCGAAUUCUGCUGU: the self-cleavage amounted to 0.456.

Consider GGGGGCCACAGCAGAAGUGUUCACGUCGCGGCCCCUGUCAGAUUCUGGUGAAUUUGCGAAUUCUGCUGU, for which the self-cleavage was 0.852.

As for GGGGGCCACAGCAGAAGUGUUCACGUCGCGGCCCAUGUCAGAUUCUGGUGAAUCUGCGAAUUCUGCUGU, the self-cleavage was 0.24.

In the case of GGGGGCCACAGCAGAAGUGUUCACGUCGCGGCCCGUGUCAGAUUCUGGUGAAUCUGCGAAUUCUGCUGU, the self-cleavage turned out to be 0.281.

For the variant GGGGGCCACAGCAGAAGUGUUCACGUCGCCGCCCCUGUCAGAUUCUGGUGAAUCUGCGAAUUCUGCUGU, the self-cleavage stood at 0.222.

As for GGGGGCCACAGCAGAAGUGUUCACGUCGCUGCCCCUGUCAGAUUCUGGUGAAUCUGCGAAUUCUGCUGU, the self-cleavage was found to be 0.192.

Take GGGGGCCACAGCAGAAGUGUUCACGUCGCGGUCCCUGUCAGAUUCUGGUGAAUCUGCGAAUUCUGCUGU: the self-cleavage turned out to be 0.87.

Turning to GGGGGCCACAGCAGAAGUGUUCACGUCGCGGACCCUGUCAGAUUCUGGUGAAUCUGCGAAUUCUGCUGU, the self-cleavage is 0.381.

In the case of GGGGGCCACAGCAGAAGUGUUCACGUCGCGGCCCCUGUCAGAUUAUGGUGAAUCUGCGAAUUCUGCUGU, the self-cleavage came out at 0.792.

With GGGGGCCACAGCAGAAGUGUUCACGUCGCGGCCCCUGUCAGAGUCUGGUGAAUCUGCGAAUUCUGCUGU, the self-cleavage is 0.357.

On to GGGGGCCACAGCAGAAGUGUUCACGUCGCGGCCCCUGUCAGACUCUGGUGAAUCUGCGAAUUCUGCUGU, for which the self-cleavage was 0.768.

With GGGGGCCACAGCAGAAGUGUUCACGUCGCGGCCCCUGUCAGAUUCUGCUGAAUCUGCGAAUUCUGCUGU, the self-cleavage was determined as 0.903.

Regarding GGGGGCCACAGCAGAAGUGUUCACGUCGCGGCCCCUGUCAGAUUCUGUUGAAUCUGCGAAUUCUGCUGU, the self-cleavage came to 0.934.

For the variant GGGGGCCACAGCAGAAGUGUUCACGUCGCGGCCCCUGUCAGAUUCUAGUGAAUCUGCGAAUUCUGCUGU, the self-cleavage stood at 0.975.

Regarding GGGGGCCACAGCAGAAGUGUUCACGUCGCGGCCCCUGUCAGAUUCUUGUGAAUCUGCGAAUUCUGCUGU, the self-cleavage is 0.928.

GGGGGCCACAGCAGAAGUGUUCACGUCGCGGCCCCUGUCAGAUUCUCGUGAAUCUGCGAAUUCUGCUGU: the self-cleavage is 0.911.

On to GGGGGCCACAGCAGAAGUGUUCACGUCGAGGCCCCUGUCAGAUUCUGGUGAAUCUGCGAAUUCUGCUGU, for which the self-cleavage was found to be 0.161.

On to GGGGGCCACAGCAGAAGUGUUCACGUCGUGGCCCCUGUCAGAUUCUGGUGAAUCUGCGAAUUCUGCUGU, for which the self-cleavage worked out at 0.0827.

On to GGGGGCCACAGCAGAAGUGUUCACGUCGCGGCCCCUGUCAGAUUCUGGUGAAUCUGCAAAUUCUGCUGU, for which the self-cleavage was found to be 0.801.

On to GGGGGCCACAGCAGAAGUGUUCACGUCGCGGCCCCUGUCAGAUUCUGGUGAAUCUGCUAAUUCUGCUGU, for which the self-cleavage is 0.942.
